Source: US20230051715A1 (MABWELL THERAPEUTICS, published 2023)
Changes are numbered by the printed parent chain. Names may count otherwise. Blank lines part the entries; values can stand above or below the binder they belong to.

Legend:
[1] = target: T1, human C1s mutant M12 (G381E & G382E) (human, UniProt P09871 16-688); assay: ELISA, plate coated with human C1s mutant M12: G381E, G382E, OD450nm
T1 construct: The entry is the mutant itself
T1 sequence: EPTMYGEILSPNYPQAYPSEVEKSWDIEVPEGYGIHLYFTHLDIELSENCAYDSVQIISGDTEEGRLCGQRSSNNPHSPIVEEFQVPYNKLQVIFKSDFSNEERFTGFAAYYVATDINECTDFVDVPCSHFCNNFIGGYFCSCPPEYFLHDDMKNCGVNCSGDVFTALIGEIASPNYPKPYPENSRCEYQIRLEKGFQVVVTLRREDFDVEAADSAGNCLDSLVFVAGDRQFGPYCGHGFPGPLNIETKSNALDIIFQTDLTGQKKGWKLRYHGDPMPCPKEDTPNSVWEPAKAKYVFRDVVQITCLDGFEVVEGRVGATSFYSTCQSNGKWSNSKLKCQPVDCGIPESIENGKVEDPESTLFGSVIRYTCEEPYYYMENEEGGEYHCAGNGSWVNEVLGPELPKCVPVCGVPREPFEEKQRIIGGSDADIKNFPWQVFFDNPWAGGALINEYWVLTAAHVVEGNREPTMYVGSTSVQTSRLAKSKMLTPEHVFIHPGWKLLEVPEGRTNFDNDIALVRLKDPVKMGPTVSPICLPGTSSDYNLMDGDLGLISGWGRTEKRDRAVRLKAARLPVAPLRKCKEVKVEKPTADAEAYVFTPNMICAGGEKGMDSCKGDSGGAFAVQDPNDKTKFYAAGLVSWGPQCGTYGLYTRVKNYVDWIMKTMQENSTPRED
Protocol: (§1) ELISA was carried out by first coating 96-well plates with 200 ng/well of full-length or truncated C1s proteins overnight. The next morning, plates were blocked with SuperBlock T20 blocking buffer (Thermo Scientific 37536) for 1 h with gentle shaking. Then, various concentrations of anti-C1s antibodies diluted in SuperBlock T20 blocking buffer were added to the plates and incubated for 1 h with gentle shaking. Mouse IgG (Sigma-Aldrich 15381) and human IgG1 (BioXCell BP0297) were used as negative controls. The plates were washed before incubating with HRP conjugated secondary antibodies diluted in SuperBlock T20 blocking buffer (goat anti-mouse IgG (H+L) cross-adsorbed secondary antibody HRP (Invitrogen G-21040) or goat anti-human IgG antibody, HRP conjugate (Millipore AP309P)) for 1 h with gentle shaking. At last, the plates were washed and color developed with ELISA liquid HRP substrate (Sigma-Aldrich), followed by stopping the reaction with addition of 1M H₂SO₄ in the same volume as the ELISA liquid substrate. Bound antibody was measured by absorbance at OD₄₅₀ₙₘ.
(§2) Binding of anti-C1s antibodies to mutants M1-M20 of human C1s was measured by ELISA as described in Example 4, and results are shown in FIGS. 6B-6U. All anti-C1s humanized variants including hz2-7(H1L2), hz2-8(H1L2 G80A) and hz2-8(H1L2 G80A/T82A) maintained strong binding properties to the majority (16 out of 20) of C1s mutants including M1 (FIG. 6B), M2 (FIG. 6C), M3 (FIG. 6D). M4 (FIG. 6E), M7 (FIG. 6H), M8 (FIG. 6I), M10 (FIG. 6K), M11 (FIG. 6L), M12 (FIG. 6M), M13 (FIG. 6N), M15 (FIG. 6P), M16 (FIG. 6Q), M17 (FIG. 6R), M18 (FIG. 6S), M19 (FIG. 6T) and M20 (FIG. 6U).

[2] = target: T2, human C1s mutant M13 (A292D) (human, UniProt P09871 16-688); assay: ELISA, plate coated with human C1s mutant M13: A292D, OD450nm
T2 construct: The entry is the mutant itself
T2 sequence: T1 sequence with A292D, E381G, E382G
Protocol: as §1, §2

- EC50 [1]: 5 ng/mL
- EC50 [2]: 5 ng/mL
B1: Anti-C1s antibody hz2-7(H1L2) (antibody, V domains shown)
VH: EVQLLESGGGLVQPGGSLRLSCAASGFTFSNYFMNWVRQAPGKGLEWVSEIRLKFTNYATHYADSVKGRFTISRDDSKSTLYLQMNSLRAEDTAVYYCTRDYGSRNGYFDYWGQGTLVTVSS
VL: DIVMTQTPLSLPVTPGEPASISCRSSKSLLHSNGNTFLYWFLQKPGQSPQLLIYRMSNLASGVPDRFSGSGSGTDFTLKISRVEAEDVGVYYCMQHLEYPYTFGGGTKLEIKR
notes: Humanized, human IgG1 / kappa; also called hz2-7(1L2)

- EC50 [1]: 5 ng/mL
- EC50 [2]: 6 ng/mL
B2: Anti-C1s antibody hz2-8 (H1L2 G80A) (antibody, V domains shown)
VH: QVQLVQSGAEVKKPGASVKVSCKASGFNIKEYYMHWVRQAPEQGLEWMGWIDPENADTIYAQKFQGRVTITADTSTNTAYMELSSLRSEDTAVYYCARSRLFFAYWGQGTLVTVSS
VL: DIQMTQSPKSLSASVGDRVTITCRASQDVRTALDWYQQKPGQSPKLLIYSASYRYSGVPSRFSGSGSGTDFTLTISSLQPEDFATYYCQQQYTTPYTFGQGTKLEIKR
notes: Humanized variant with G80A in HC CDR2 (already in the entry), human IgG1 / kappa

- EC50 [1]: 5 ng/mL
- EC50 [2]: 9 ng/mL
B3: Anti-C1s antibody hz2-8 (H1L2 G80A/T82A) (antibody, V domains shown)
VH: B2 VH with T58A
VL: B2 VL
notes: Humanized variant with G80A and T82A in HC CDR2 (already in the entry), human IgG1 / kappa
